# T1: His-PIPKIγ661 C-terminus, wild-type (439-661)
# T1 chain: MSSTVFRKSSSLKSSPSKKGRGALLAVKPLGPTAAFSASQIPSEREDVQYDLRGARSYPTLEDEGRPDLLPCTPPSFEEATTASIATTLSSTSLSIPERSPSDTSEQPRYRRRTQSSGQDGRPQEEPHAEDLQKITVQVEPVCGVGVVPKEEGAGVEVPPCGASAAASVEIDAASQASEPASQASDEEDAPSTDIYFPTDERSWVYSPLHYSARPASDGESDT
# Biological target: T1, His-PIPKIγ661 C-terminus, wild-type …
protein,measurement,value
focal adhesion-associated kinase (FAK) (protein) MAAAYLDPNLNHTPSSSTKTHLGTGMERSPGAMERVLKVFHHFESSSEPTTWASIIRHGDATDVRGIIQKIVDSHKVKHVACYGFRLSHLRSEEVHWLHVDMGVSSVREKYELAHPPEEWKYELRIRYLPKGFLNQFTEDKPTLNFFYQQVKSDYMQEIADQVDQEIALKLGCLEIRRSYWEMRGNALEKKSNYEVLEKDVGLKRFFPKSLLDSVKAKTLRKLIQQTFRQFANLNREESILKFFEILSPVYRFDKECFKCALGSSWIISVELAIGPEEGISYLTDKGCNPTHLADFNQVQTIQYSNSEDKDRKGMLQLKIAGAPEPLTVTAPSLTIAENMADLIDGYCRLVNGATQSFIIRPQKEGERALPSIPKLANSEKQGMRTHAVSVSHCQHKVKKARRFLPLVFCSLEPPPTDEISGDETDDYAEIIDEEDTYTMPSKSYGIDEARDYEIQRERIELGRCIGEGQFGDVHQGVYLSPENPALAVAIKTCKNCTSDSVREKFLQEALTMRQFDHPHIVKLIGVITENPVWIIMELCTLGELRSFLQVRKYSLDLASLILYAYQLSTALAYLESKRFVHRDIAARNVLVSSNDCVKLGDFGLSRYMEDSTYYKASKGKLPIKWMAPESINFRRFTSASDVWMFGVCMWEILMHGVKPFQGVKNNDVIGRIENGERLPMPPNCPPTLYSLMTKCWAYDPSRRPRFTELKAQLSTILEEEKVQQEERMRMESRRQATVSWDSGGSDEAPPKPSRPGYPSPRSSEGFYPSPQHMVQTNHYQVSGYPGSHGIPAMAGSIYQGQASLLDQTELWNHRPQEMSMWQPSVEDSAALDLRGMGQVLPPHLMEERLIRQQQEMEEDQRWLEKEERFLKPDVRLSRGSIDREDGSFQGPTGNQHIYQPVGKPDPAAPPKKPPRPGAPGHLSNLSSISSPADSYNEGVKLQPQEISPPPTANLDRSNDKVYENVTGLVKAVIEMSSKIQPAPPEEYVPMVKEVGLALRTLLATVDETIPALPASTHREIEMAQKLLNSDLGELISKMKLAQQYVMTSLQQEYKKQMLTAAHALAVDAKNLLDVIDQARLKMLGQTRPH,"in vitro kinase assay, phosphorylation of the recombinant substrate",while FAK does not
